Target: GP46 protein of Lactococcus lactis phage vB_Llc_bIBBF13 (F13), purified, SUMO tag removed (Lactococcus lactis phage vB_Llc_bIBBF13 (F13))
Assay: SEC-MALS; GP46F13 100 ul injected at 1.5 mg/ml on Superdex 200 Increase 10/300, room temperature, 0.5 ml/min, 50 mM Tris-HCl pH 8, 500 mM NaCl, 20 mM imidazole, no cofactors

Substance: GP46 protein of Lactococcus lactis phage vB_Llc_bIBBF13 (F13), purified, SUMO tag removed (enzyme)
- stoichiometry N: 2

Source: paper PMC8965321
